According to article PMC4960622, “Crystal structures of RidA, an important enzyme for the prevention of toxic side products” (Scientific Reports, 2016):

B1: Arabidopsis thaliana RidA, construct starting from S68 (AtRidA-S68), wild type (enzyme, UniProt Q94JQ4 68-187, looked up)
chain: STEKAPAALGPYSQAIKANNLVFLSGVLGLIPETGKFVSESVEDQTEQVLKNMGEILKASGADYSSVVKTTIMLADLADFKTVNEIYAKYFPAPSPARSTYQVAALPLNAKIEIECIATL
notes: Reactive Intermediate Deaminase A (RidA), Arabidopsis thaliana, GenBank AY060547.1, residues S68-L187 (without the predicted chloroplast transit peptide); Residues S80-L187 are resolved in the crystal structures; also called RidA WT; apo-AtRidA; source: E. coli BL21 (DE3), purified (Ni-NTA, PreScission cleavage, Histrap); not shown: His6, N-terminal, cleaved
B2: AtRidA-S68 S80A (enzyme, Arabidopsis thaliana, UniProt Q94JQ4 68-187, looked up)
chain: STEKAPAALGPYAQAIKANNLVFLSGVLGLIPETGKFVSESVEDQTEQVLKNMGEILKASGADYSSVVKTTIMLADLADFKTVNEIYAKYFPAPSPARSTYQVAALPLNAKIEIECIATL
notes: Reactive Intermediate Deaminase A (RidA), Arabidopsis thaliana, GenBank AY060547.1, residues S68-L187, made by QuikChange on the RidA-S68/pET28a(+) plasmid; The purification of the mutants is not described separately; probably as for the wild type (tag cleaved); also called RidA-S80A; source: E. coli BL21 (DE3), purified
B3: AtRidA-S68 K136R (enzyme, Arabidopsis thaliana, UniProt Q94JQ4 68-187, looked up)
chain: STEKAPAALGPYSQAIKANNLVFLSGVLGLIPETGKFVSESVEDQTEQVLKNMGEILKASGADYSSVVRTTIMLADLADFKTVNEIYAKYFPAPSPARSTYQVAALPLNAKIEIECIATL
notes: Reactive Intermediate Deaminase A (RidA), Arabidopsis thaliana, GenBank AY060547.1, residues S68-L187, made by QuikChange on the RidA-S68/pET28a(+) plasmid; The purification of the mutants is not described separately; probably as for the wild type (tag cleaved); also called RidA-K136R; source: E. coli BL21 (DE3), purified
B4: AtRidA-S68 E182A (enzyme, Arabidopsis thaliana, UniProt Q94JQ4 68-187, looked up)
chain: STEKAPAALGPYSQAIKANNLVFLSGVLGLIPETGKFVSESVEDQTEQVLKNMGEILKASGADYSSVVKTTIMLADLADFKTVNEIYAKYFPAPSPARSTYQVAALPLNAKIEIACIATL
notes: Reactive Intermediate Deaminase A (RidA), Arabidopsis thaliana, GenBank AY060547.1, residues S68-L187, made by QuikChange on the RidA-S68/pET28a(+) plasmid; The purification of the mutants is not described separately; probably as for the wild type (tag cleaved); also called RidA-E182A; source: E. coli BL21 (DE3), purified
B5: AtRidA-S68 S166A (enzyme, Arabidopsis thaliana, UniProt Q94JQ4 68-187, looked up)
chain: STEKAPAALGPYSQAIKANNLVFLSGVLGLIPETGKFVSESVEDQTEQVLKNMGEILKASGADYSSVVKTTIMLADLADFKTVNEIYAKYFPAPSPARATYQVAALPLNAKIEIECIATL
notes: Reactive Intermediate Deaminase A (RidA), Arabidopsis thaliana, GenBank AY060547.1, residues S68-L187, made by QuikChange on the RidA-S68/pET28a(+) plasmid; The purification of the mutants is not described separately; probably as for the wild type (tag cleaved); also called RidA-S166A; source: E. coli BL21 (DE3), purified
B6: AtRidA-S68 S92A (enzyme, Arabidopsis thaliana, UniProt Q94JQ4 68-187, looked up)
chain: STEKAPAALGPYSQAIKANNLVFLAGVLGLIPETGKFVSESVEDQTEQVLKNMGEILKASGADYSSVVKTTIMLADLADFKTVNEIYAKYFPAPSPARSTYQVAALPLNAKIEIECIATL
notes: Reactive Intermediate Deaminase A (RidA), Arabidopsis thaliana, GenBank AY060547.1, residues S68-L187, made by QuikChange on the RidA-S68/pET28a(+) plasmid; The purification of the mutants is not described separately; probably as for the wild type (tag cleaved); also called RidA-S92A; source: E. coli BL21 (DE3), purified

Tests used:
[1] = target: the molecule itself; assay: SEC; 0.5 mg of RidA WT and mutants loaded separately onto a Superdex-75 size-exclusion column; protein standards as size reference
[2] = target: the molecule itself; assay: crystal structure; apo form; space group H3, one monomer per asymmetric unit, trimer by the crystallographic 3-fold axis; sitting drop, 18% PEG 3350, 0.1 M MES pH 6.0, 25 °C

| Protein | stoichiometry N [1] | stoichiometry N [2] | binding result [1] |
| --- | --- | --- | --- |
| B1 | ~3 | 3 |  |
| B2 |  |  | binds |
| B3 |  |  | binds |
| B4 |  |  | binds |
| B5 |  |  | binds |
| B6 |  |  | binds |
